Values of other authors, collected in paper PMC6005658.

Molecular target: arodyn (1)
Test: radioligand binding

κ opioid receptor, sequence (P34975 whole entry): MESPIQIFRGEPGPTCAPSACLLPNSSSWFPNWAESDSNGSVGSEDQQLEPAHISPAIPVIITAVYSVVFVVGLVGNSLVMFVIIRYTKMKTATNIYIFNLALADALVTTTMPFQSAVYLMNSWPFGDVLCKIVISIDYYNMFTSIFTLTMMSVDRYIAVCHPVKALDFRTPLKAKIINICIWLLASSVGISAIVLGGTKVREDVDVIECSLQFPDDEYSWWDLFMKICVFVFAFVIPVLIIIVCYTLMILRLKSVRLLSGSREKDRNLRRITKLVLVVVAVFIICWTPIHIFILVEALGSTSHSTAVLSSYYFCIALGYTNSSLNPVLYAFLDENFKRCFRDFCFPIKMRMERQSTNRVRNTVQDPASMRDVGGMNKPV
μ opioid receptor, sequence (P33535 whole entry): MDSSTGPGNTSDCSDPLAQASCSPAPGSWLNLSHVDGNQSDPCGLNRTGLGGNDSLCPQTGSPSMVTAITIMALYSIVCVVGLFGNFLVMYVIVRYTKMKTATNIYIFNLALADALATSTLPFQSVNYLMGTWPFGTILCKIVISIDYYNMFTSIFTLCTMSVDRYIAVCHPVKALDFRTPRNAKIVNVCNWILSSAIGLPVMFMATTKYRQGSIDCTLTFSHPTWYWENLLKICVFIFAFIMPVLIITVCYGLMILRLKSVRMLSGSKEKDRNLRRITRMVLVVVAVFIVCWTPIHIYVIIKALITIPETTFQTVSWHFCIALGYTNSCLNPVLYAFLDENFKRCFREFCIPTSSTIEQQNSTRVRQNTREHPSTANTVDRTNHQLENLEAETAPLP

Ki [nM]	Substance
10	κ opioid receptor (from UniProt P34975)
1750	μ opioid receptor (from UniProt P33535)
